Reference: PMC9684487, “Human antibody recognition and neutralization mode on the NTD and RBD domains of SARS-CoV-2 spike protein” (Scientific Reports, 2022)

B1: 7G7/κ (antibody, V domains shown)
VH: QVQLVESGGGVVQPGRSLRLSCIASGFTFRNYAMYWVRQAPGKGLEWVAVIWYDGSNKFYTDSVKGRFTISRDNSKNSLYLQMNSLRAEDTAVYFCARDQGFGDNYYYYGMDVWGQGTTVTVSS
VL: SYELTQPPSVSVSPGQTARISCSGDALPKEYAYWYQQKPGQAPVLVIYKDSERPSGIPERFSGSSSGTTVTLTISGVQAEDEADYYCQLADSSMHYVVFGGGTKLTVL
notes: also called 7G7-IgG1κ; 7G7/κ (IgG1/Igκ); source: Expi293F, cotransfected with IgH and IgL vectors, purified (HiTrap Protein G)
B2: NIBIC-71 (antibody, V domains shown)
VH: EVQLVESGGGLIQPGGSLRLSCEASGLIVSSNYMTWVRQAPGKGLEWVSVIYSGGSTFYADSVKGRFTVSRDNSKNTLYLQMNNLSPEDTAVYYCARDLGPYGVDVWGQGTTVTVSS
VL: AIQLTQSPSSLSASVGDRVTITCRASQGISSYLAWYQQTPGKAPKLLIYAASTLQSGVPSRFSGSGSGTDFTLTISSLQPEDFATYYCQQLNSYPPFTFGPGTKVDIK
notes: also called recombinant mAb NIBIC-71

Target: T1, S protein trimer with D614G mutation (SARS-CoV-2, D614G, D614G)
T1 construct: also called Spike; homotrimeric S protein
Test: cryo-EM structure
Details: both partners purified

Row | Binder | stoichiometry N [Fabs per S protein trimer]
1 | B1 | 3
2 | B2 | 2
